Measurements from paper PMC7416112 (Structure(London, England:1993), 2020).

B1: 2G12 Fab2 (Fab, V domains shown)
VH: EVQLVESGGGLVKAGGSLILSCGVSNFRISAHTMNWVRRVPGGGLEWVASISTSSTYRDYADAVKGRFTVSRDDLEDFVYLQMHKMRVEDTAIYYCARKGSDRLSDNDPFDAWGPGTVVTVSP
VL: DVVMTQSPSTLSASVGDTITITCRASQSIETWLAWYQQKPGKAPKLLIYKASTLKTGVPSRFSGSGSGTEFTLTISGLQFDDFATYHCQHYAGYSATFGQGTRVEIK
notes: also called 2G12 bnAb; copies: 2 + 2

Key:
Experiment in all cases: BLI
[1] = biological target: BG505 SOSIP.v4.1-2XStrep (N332) (HIV-1 (BG505))
[2] = biological target: BG505 SOSIP.v4.1-2XStrep N332 N295Q (HIV-1 (BG505))
[3] = biological target: BG505 SOSIP.v4.1-2XStrep N332 N339Q (HIV-1 (BG505))
[4] = biological target: BG505 SOSIP.v4.1-2XStrep N332 N363Q (HIV-1 (BG505))
[5] = biological target: BG505 SOSIP.v4.1-2XStrep N332 N386Q (HIV-1 (BG505))
[6] = biological target: BG505 SOSIP.v4.1-2XStrep N332 N392Q (HIV-1 (BG505))
[7] = biological target: BG505 SOSIP.v4.1-2XStrep T332 (HIV-1 subtype A, BG505, UniProt Q2N0S6, stabilised); settings: both partners purified

Molecule | Kd [1] | Kd [2] | Kd [3] | Kd [4] | Kd [5] | Kd [6] | Kd [7] | koff [7] | kon [7]
2G12 Fab2 | 4.25 nM | 11.4 nM | 7.35 nM | 3.99 nM | 3.15 nM | 16.8 nM |  |  | 
B1 |  |  |  |  |  |  | 22.9 nM | 0.00558 s⁻¹ | 244000 M⁻¹ s⁻¹
